Laboratory results: patent US7658917 (PRAECIS PHARMACEUTICALS, dated 2010)
Ends that are not written are not given here. * marks the point of attachment. Cholyl = C[C@H](CCC(=O)*)[C@H]1CC[C@H]2[C@@H]3[C@H](O)C[C@@H]4C[C@H](O)CC[C@]4(C)[C@H]3C[C@H](O)[C@]12C; iminobiotinyl = N=C1N[C@H]2[C@H](CS[C@H]2CCCCC(=O)*)N1

B1: cholyl-Aβ15-19 (peptide)
peptide: Cholyl-QKLVF-OH
SMILES: CC(C)C[C@H](NC(=O)[C@H](CCCCN)NC(=O)[C@H](CCC(N)=O)NC(=O)CC[C@@H](C)[C@H]1CC[C@H]2[C@@H]3[C@H](O)C[C@@H]4C[C@H](O)CC[C@]4(C)[C@H]3C[C@H](O)[C@]12C)C(=O)N[C@H](C(=O)N[C@@H](Cc1ccccc1)C(=O)O)C(C)C
B2: cholyl-Aβ17-21 (peptide)
peptide: Cholyl-LVFFA-OH
SMILES: CC(C)C[C@H](NC(=O)CC[C@@H](C)[C@H]1CC[C@H]2[C@@H]3[C@H](O)C[C@@H]4C[C@H](O)CC[C@]4(C)[C@H]3C[C@H](O)[C@]12C)C(=O)N[C@H](C(=O)N[C@@H](Cc1ccccc1)C(=O)N[C@@H](Cc1ccccc1)C(=O)N[C@@H](C)C(=O)O)C(C)C
B3: Cholyl-penta-alanine (peptide)
peptide: Cholyl-AAAAA-OH
SMILES: C[C@H](NC(=O)[C@H](C)NC(=O)[C@H](C)NC(=O)[C@H](C)NC(=O)[C@H](C)NC(=O)CC[C@@H](C)[C@H]1CC[C@H]2[C@@H]3[C@H](O)C[C@@H]4C[C@H](O)CC[C@]4(C)[C@H]3C[C@H](O)[C@]12C)C(=O)O
B4: cholyl-Aβ16-20 (Phe19->Ala) (peptide)
peptide: Cholyl-KLVAF-OH
SMILES: CC(C)C[C@H](NC(=O)[C@H](CCCCN)NC(=O)CC[C@@H](C)[C@H]1CC[C@H]2[C@@H]3[C@H](O)C[C@@H]4C[C@H](O)CC[C@]4(C)[C@H]3C[C@H](O)[C@]12C)C(=O)N[C@H](C(=O)N[C@@H](C)C(=O)N[C@@H](Cc1ccccc1)C(=O)O)C(C)C
B5: cholyl-Aβ6-17-amide (peptide)
peptide: Cholyl-HDSGYEVHHQKL-NH2
SMILES: CC(C)C[C@H](NC(=O)[C@H](CCCCN)NC(=O)[C@H](CCC(N)=O)NC(=O)[C@H](Cc1c[nH]cn1)NC(=O)[C@H](Cc1c[nH]cn1)NC(=O)[C@@H](NC(=O)[C@H](CCC(=O)O)NC(=O)[C@H](Cc1ccc(O)cc1)NC(=O)CNC(=O)[C@H](CO)NC(=O)[C@H](CC(=O)O)NC(=O)[C@H](Cc1c[nH]cn1)NC(=O)CC[C@@H](C)[C@H]1CC[C@H]2[C@@H]3[C@H](O)C[C@@H]4C[C@H](O)CC[C@]4(C)[C@H]3C[C@H](O)[C@]12C)C(C)C)C(N)=O
B6: cholyl-Aβ6-20-amide (peptide)
peptide: Cholyl-HDSGYEVHHQKLVFF-NH2
SMILES: CC(C)C[C@H](NC(=O)[C@H](CCCCN)NC(=O)[C@H](CCC(N)=O)NC(=O)[C@H](Cc1c[nH]cn1)NC(=O)[C@H](Cc1c[nH]cn1)NC(=O)[C@@H](NC(=O)[C@H](CCC(=O)O)NC(=O)[C@H](Cc1ccc(O)cc1)NC(=O)CNC(=O)[C@H](CO)NC(=O)[C@H](CC(=O)O)NC(=O)[C@H](Cc1c[nH]cn1)NC(=O)CC[C@@H](C)[C@H]1CC[C@H]2[C@@H]3[C@H](O)C[C@@H]4C[C@H](O)CC[C@]4(C)[C@H]3C[C@H](O)[C@]12C)C(C)C)C(=O)N[C@H](C(=O)N[C@@H](Cc1ccccc1)C(=O)N[C@@H](Cc1ccccc1)C(N)=O)C(C)C
B7: cholyl-Aβ6-19-amide (PPI-321 as printed in Table III) (peptide)
peptide: Cholyl-HDSGYEVHHQKLVF-NH2
SMILES: CC(C)C[C@H](NC(=O)[C@H](CCCCN)NC(=O)[C@H](CCC(N)=O)NC(=O)[C@H](Cc1c[nH]cn1)NC(=O)[C@H](Cc1c[nH]cn1)NC(=O)[C@@H](NC(=O)[C@H](CCC(=O)O)NC(=O)[C@H](Cc1ccc(O)cc1)NC(=O)CNC(=O)[C@H](CO)NC(=O)[C@H](CC(=O)O)NC(=O)[C@H](Cc1c[nH]cn1)NC(=O)CC[C@@H](C)[C@H]1CC[C@H]2[C@@H]3[C@H](O)C[C@@H]4C[C@H](O)CC[C@]4(C)[C@H]3C[C@H](O)[C@]12C)C(C)C)C(=O)N[C@H](C(=O)N[C@@H](Cc1ccccc1)C(N)=O)C(C)C
B8: cholyl-Aβ6-14-amide (peptide)
peptide: Cholyl-HDSGYEVHH-NH2
SMILES: CC(C)[C@H](NC(=O)[C@H](CCC(=O)O)NC(=O)[C@H](Cc1ccc(O)cc1)NC(=O)CNC(=O)[C@H](CO)NC(=O)[C@H](CC(=O)O)NC(=O)[C@H](Cc1c[nH]cn1)NC(=O)CC[C@@H](C)[C@H]1CC[C@H]2[C@@H]3[C@H](O)C[C@@H]4C[C@H](O)CC[C@]4(C)[C@H]3C[C@H](O)[C@]12C)C(=O)N[C@@H](Cc1c[nH]cn1)C(=O)N[C@@H](Cc1c[nH]cn1)C(N)=O

Each binder was assayed against natural β-amyloid peptide β-AP1-40 (human) (assay: cell-based or functional assay).
Chain of natural β-amyloid peptide β-AP1-40 (human) (peptide, as listed by the source): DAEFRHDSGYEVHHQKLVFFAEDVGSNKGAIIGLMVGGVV

Row | Binder | % Inhibition of Plateau; nucleation assay; 100 mole % | Fold Increase in Lag Time; nucleation assay; 100 mole % | % Inhibition of Plateau; nucleation assay; 10 mole % | Fold Increase in Lag Time; nucleation assay; 10 mole % | Fold Increase in Lag Time; nucleation assay; 33 mole %
1 | Cholyl-KLTFF [cholyl-Aβ16-20 (Val18->Thr)] | ~0% | ~1 fold | – | – | –
2 | B1 | ~0% | 3.1 fold | ~0% | 1.6 fold | –
3 | B2 | 100% | > 5 fold | – | – | –
4 | iminobiotinyl-KLVFF-OH [iminobiotinyl-Aβ16-20] | 86% | 1.3 fold | – | – | –
5 | H-KLVFF-OH [unmodified Aβ16-20] | ~0% | ~1 fold | – | – | –
6 | Cholyl-KLVFF-NH2 [cholyl-Aβ16-20-amide] | – | – | ~0% | 2.7 fold | 5.6 fold
7 | B3 | ~0% | ~1 fold | – | – | –
8 | B4 | 73% | 2.6 fold | – | – | –

Biological target: natural β-amyloid peptide β-AP1-40 (human)
Test: cell-based or functional assay
Remark: another data set of the same source

Row | Binder | % Inhibition of Plateau; nucleation assay; 33 mole % | Fold Increase in Lag Time; nucleation assay; 33 mole % | % Inhibition of Plateau; nucleation assay; 100 mole % | Fold Increase in Lag Time; nucleation assay; 100 mole %
9 | B5 | ~0% | 1.8 fold | – | –
10 | Cholyl-DSGYEVHHQKLVFF [cholyl-Aβ7-20] | ~0% | 2 fold | 100% | > 4.5 fold
11 | B6 | ~0% | 1.8 fold | – | –
12 | B7 | ~0% | 1.4 fold | – | –
13 | B8 | 29% | 1 fold | – | –

Biological target: natural β-amyloid peptide β-AP1-40 (human)
Test: cell-based or functional assay
Remark: another data set of the same source

Row | Binder | % Iext'n; seeded extension assay; 25 mole % | % Inucl'n; nucleation assay; 100 mole % | ΔLag; nucleation assay; 100 mole %
14 | Cholyl-KLTFF [cholyl-Aβ16-20 (Val18->Thr)] | 44% | -16% | 1.1 ratio
15 | B1 | – | -23% | 3.1 ratio
16 | B2 | 91% | 100% | > 5 ratio
17 | iminobiotinyl-KLVFF-OH [iminobiotinyl-Aβ16-20] | 0% | 86% | 1.3 ratio
18 | H-KLVFF-OH [unmodified Aβ16-20] | 8% | 0% | 1.1 ratio
19 | Cholyl-KLVFF-NH2 [cholyl-Aβ16-20-amide] | 52% | 70% | 5.4 ratio
20 | B3 | 0% | -7% | 0.8 ratio
21 | B4 | 31% | 73% | 2.6 ratio
